Target: the molecule itself
Test: crystal structure

B1: major vault protein MVP, as in intact vault particles purified from rat liver (natural protein, rat (endogenous in rat liver), UniProt Q62667 1-861, looked up)
chain: MATEEAIIRIPPYHYIHVLDQNSNVSRVEVGPKTYIRQDNERVLFAPVRMVTVPPRHYCIVANPVSRDTQSSVLFDITGQVRLRHADQEIRLAQDPFPLYPGEVLEKDITPLQVVLPNTALHLKALLDFEDKNGDKVMAGDEWLFEGPGTYIPQKEVEVVEIIQATVIKQNQALRLRARKECFDREGKGRVTGEEWLVRSVGAYLPAVFEEVLDLVDAVILTEKTALHLRALQNFRDLRGVLHRTGEEWLVTVQDTEAHVPDVYEEVLGVVPITTLGPRHYCVILDPMGPDGKNQLGQKRVVKGEKSFFLQPGERLERGIQDVYVLSEQQGLLLKALQPLEEGESEEKVSHQAGDCWLIRGPLEYVPSAKVEVVEERQAIPLDQNEGIYVQDVKTGKVRAVIGSTYMLTQDEVLWEKELPSGVEELLNLGHDPLADRGQKGTAKPLQPSAPRNKTRVVSYRVPHNAAVQVYDYRAKRARVVFGPELVTLDPEEQFTVLSLSAGRPKRPHARRALCLLLGPDFFTDVITIETADHARLQLQLAYNWHFELKNRNDPAEAAKLFSVPDFVGDACKAIASRVRGAVASVTFDDFHKNSARIIRMAVFGFEMSEDTGPDGTLLPKARDQAVFPQNGLVVSSVDVQSVEPVDQRTRDALQRSVQLAIEITTNSQEAAAKHEAQRLEQEARGRLERQKILDQSEAEKARKELLELEAMSMAVESTGNAKAEAESRAEAARIEGEGSVLQAKLKAQALAIETEAELERVKKVREMELIYARAQLELEVSKAQQLANVEAKKFKEMTEALGPGTIRDLAVAGPEMQVKLLQSLGLKSTLITDGSSPINLFSTAFGLLGLGSDGQPPAQK
With B1 the “stoichiometry N” value was 78.

Source: PMC2752026 (The EMBO Journal, 2009)
